B1: GST-CTD (C-terminal domain of HIV-1 integrase, aa 201-288) [HIV-1 His6-SUMO-INI1_(183-304) [not stated] (parent)
chain 1: VDIIATDIQTKELQKQITKIQNFRVYYRDSRNPLWKGPAKLLWKGEGAVVIQDNSDIKVVPRRKAKIIRDYGKQMAGDDCVASRQDED
chain 2: PEVLVPIRLDMEIDGQKLRDAFTWNMNEKLMTPEMFSEILCDDLDLNPLTFVPAIASAIRQQIESYPTDSILEDQSDQRVIIKLNIHVGNISLVDQFEWDMSEKENSPEKFALKLCSELGLG

Variants of: B1
Assay: Alpha assay
Details: with His6-SUMO-INI1_(183-304); low salt conditions; parent: 100; read off a plot

| Variant | percent of parent |
| --- | --- |
| chain 1 R28A | 8 % of WT |

— paper PMC8115288
